Experimental data: patent US20170291942A1

Biological target: IL-6 protein (human) (UniProt P05231)
Assay: Luminex based assay, biotin-IL-6 binding to solid phase sIL-6R/gp80

Chain of UniProt P05231 (P05231 30-212 limits assumed): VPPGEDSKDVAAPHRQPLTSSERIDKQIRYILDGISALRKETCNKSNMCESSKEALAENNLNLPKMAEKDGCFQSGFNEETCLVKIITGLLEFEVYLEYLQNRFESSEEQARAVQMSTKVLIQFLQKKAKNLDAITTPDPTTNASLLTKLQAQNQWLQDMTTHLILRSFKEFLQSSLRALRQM

percent inhibition of bound biotin-IL-6: 62%
Substance: CLB.IL-6/16 (antibody)
